Results: US20220281980A1 (Bristol-Myers Squibb, published 2022)

Assays:
[1] = target: T1, recombinant soluble human MICA*008 antigen (human, UniProt Q29983 24-307); experiment: BLI (Octet) sandwich binning on soluble MICA allele 8, row antibody captured; competitor (second antibody): MICA.39
T1 construct: also called huIMICA-his allele *008; recombinant soluble MICA (allele 8)
T1 chain: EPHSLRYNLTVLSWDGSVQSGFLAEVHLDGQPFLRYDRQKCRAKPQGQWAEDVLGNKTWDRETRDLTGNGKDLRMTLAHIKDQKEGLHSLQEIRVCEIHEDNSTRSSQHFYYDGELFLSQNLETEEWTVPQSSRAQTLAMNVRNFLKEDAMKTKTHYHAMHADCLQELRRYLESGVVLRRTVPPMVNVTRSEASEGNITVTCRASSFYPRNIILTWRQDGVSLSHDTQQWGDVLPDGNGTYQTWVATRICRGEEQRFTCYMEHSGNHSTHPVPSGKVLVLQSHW
Method: The binning experiments were performed on an Octet HTX instrument at 25° C. in HEPES buffered saline (10 mM HEPES pH 7.4, 150 mM NaCl, 0.05% v/v surfactant P20, and 1 mg/mL BSA). Anti-MICA/B antibodies and NKG2D-mFc were captured on anti-Fc tips and remaining capture sites were blocked with an excess of negative control IgG. Recombinant soluble MICA (allele 8) was bound and subsequent binding (“sandwiching”) of anti-MICA/B antibodies was tested.

[2] = target: T2, human MICA/B endogenously expressed on 786-O cells (MICA allele *008) (human, UniProt Q29983 24-331); experiment: flow cytometry, tumor cells with endogenous MICA/B
T2 construct: it speaks of MICA/B, so MICB may be present as well; also called 786-0
T2 chain: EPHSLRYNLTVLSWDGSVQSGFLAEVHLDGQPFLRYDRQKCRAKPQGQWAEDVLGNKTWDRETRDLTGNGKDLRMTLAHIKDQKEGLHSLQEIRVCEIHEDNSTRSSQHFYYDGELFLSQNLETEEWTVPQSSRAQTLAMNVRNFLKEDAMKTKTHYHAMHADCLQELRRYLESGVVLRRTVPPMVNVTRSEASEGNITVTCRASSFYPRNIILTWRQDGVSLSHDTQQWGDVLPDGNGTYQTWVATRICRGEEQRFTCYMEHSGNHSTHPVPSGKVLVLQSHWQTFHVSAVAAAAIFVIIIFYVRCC

[3] = target: T3, human MICA/B endogenously expressed on HeLa cells (MICA allele *008) (human, UniProt Q29983 24-331); experiment: flow cytometry, tumor cells with endogenous MICA/B
T3 construct: it speaks of MICA/B, so MICB may be present as well
T3 chain: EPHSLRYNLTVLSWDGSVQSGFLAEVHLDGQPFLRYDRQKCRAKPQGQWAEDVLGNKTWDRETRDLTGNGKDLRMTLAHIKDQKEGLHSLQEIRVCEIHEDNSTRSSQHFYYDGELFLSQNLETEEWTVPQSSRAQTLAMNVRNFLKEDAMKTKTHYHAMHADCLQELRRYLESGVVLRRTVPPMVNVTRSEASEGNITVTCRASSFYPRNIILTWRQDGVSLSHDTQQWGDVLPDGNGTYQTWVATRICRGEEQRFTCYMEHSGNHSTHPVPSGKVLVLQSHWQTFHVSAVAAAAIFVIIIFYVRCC

[4] = target: T4, human MICA/B endogenously expressed on RPMI-8226 cells (human, UniProt Q29983 24-383); experiment: flow cytometry, tumor cells with endogenous MICA/B
T4 construct: whole, on cells
T4 sequence (looked up): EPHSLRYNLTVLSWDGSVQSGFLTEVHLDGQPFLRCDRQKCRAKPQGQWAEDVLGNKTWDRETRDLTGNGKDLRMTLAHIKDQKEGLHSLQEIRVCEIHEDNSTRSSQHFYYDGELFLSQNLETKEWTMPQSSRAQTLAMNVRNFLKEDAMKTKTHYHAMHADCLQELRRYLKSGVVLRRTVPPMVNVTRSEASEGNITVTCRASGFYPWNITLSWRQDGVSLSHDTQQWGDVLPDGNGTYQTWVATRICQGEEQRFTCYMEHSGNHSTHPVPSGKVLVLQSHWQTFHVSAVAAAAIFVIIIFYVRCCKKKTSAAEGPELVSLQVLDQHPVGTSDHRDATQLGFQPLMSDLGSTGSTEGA

[5] = target: T5, recombinant soluble human MICA*002 antigen (human, UniProt Q29983 24-307); experiment: SPR (Biacore 3000), antibody captured on Protein G chip, huMICA-his analyte; power of ten not given
T5 construct: also called huIMICA-his allele *002
T5 chain: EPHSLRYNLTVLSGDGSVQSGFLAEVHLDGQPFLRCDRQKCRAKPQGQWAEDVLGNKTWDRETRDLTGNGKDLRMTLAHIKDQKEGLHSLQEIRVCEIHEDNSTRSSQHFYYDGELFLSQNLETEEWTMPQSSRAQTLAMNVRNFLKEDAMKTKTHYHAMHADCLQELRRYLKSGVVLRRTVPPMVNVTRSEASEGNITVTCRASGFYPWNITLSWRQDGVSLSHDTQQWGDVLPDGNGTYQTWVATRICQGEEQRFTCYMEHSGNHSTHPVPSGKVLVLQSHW
Method: (§1) Kinetics and affinity of anti-MICA/B antibodies MICA.2, 19G6, 16A5, and 71C2 towards human MICA alleles (huIMICA-his allele *002, *004, *008, and *009) were also determined on a BIACORE 3000® instrument using the following conditions: [0571] Running Buffer: HES-EP running buffer [0572] Chip: CM5 Protein G Chip Fc1: Blank. Fc2-4: ˜200Rus [0573] Ab: 5 ug/mL, 10 uL @ 10 uL/min [0574] Ag binding: 5 min association, 7 min dissociation @ 25 uL/min, [0575] Regeneration: Glycine 1.7, 10 uL @ 100 uL/min followed by 60s wash by HES-EP

[6] = target: T1, recombinant soluble human MICA*008 …; experiment: as above
Method: as §1

[7] = target: T6, recombinant soluble human MICA*009 antigen (human, UniProt Q29983 24-307); experiment: as above
T6 construct: also called huIMICA-his allele *009
T6 chain: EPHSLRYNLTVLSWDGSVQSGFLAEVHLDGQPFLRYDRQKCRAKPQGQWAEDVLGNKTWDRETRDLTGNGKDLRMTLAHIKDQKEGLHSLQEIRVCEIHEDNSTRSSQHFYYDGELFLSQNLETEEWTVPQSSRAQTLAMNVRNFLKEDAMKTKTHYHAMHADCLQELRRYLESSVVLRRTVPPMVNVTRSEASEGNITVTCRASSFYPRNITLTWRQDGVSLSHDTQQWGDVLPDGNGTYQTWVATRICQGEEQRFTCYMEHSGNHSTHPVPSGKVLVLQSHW
Method: as §1

Row | Binder | simultaneous binding (0 = no, 1 = yes) [1] | EC50 [2] | EC50 [3] | EC50 [4] | koff [5] | koff [6] | koff [7]
1 | MICA.36 (antibody, V domains shown, it says that the name implies no specific constant region; Radioiodinated in the Scatchard assay; also called MICA.36 antibody) VH: QVQLVESGGGVVQPGRSLRLSCAASGFTFSNYAMHWVRQAPGEGLEWVALIWYDGSNKFYGDSVKGRFTISRDNSKNTLYLQMNSLSAEDTAVYYCAREGSGHYWGQGTLVTVSS VL: AIQLTQSPSSLSASVGDRVTITCRASQGISSALAWYQQKPGKVPKSLIYDASSLESGVPSRFSGSGSGTDFTLTISSLQPEDFATYYCQQFNSYPITFGQGTRLEIK | 1 |  |  |  |  |  | 
2 | 19G6 (antibody, V domains shown, Hybridoma antibody from human IgG transgenic mice, parent of MICA.36; also called 19G6 mAb; hybridoma 19G6) VH: QVQLVESGGGVVQPGRSLRLSCAASGFTFSNYAMHWVRQAPGEGLEWVALIWYDGSNKFYGDSVKGRFTISRDNSKNTLYLQMNSLSAEDTAVYYCAREGSGHYWGQGTLVTVSS VL: AIQLTQSPSSLSASVGDRVTITCRASQGISSALAWYQQKPGKVPKSLIYDASSLESGVPSRFSGSGSGTDFTLTISSLQPEDFATYYCQQFNSYPITFGQGTRLEIK |  | 1.37 nM | 1.76 nM | 3.89 nM | 8.14 s⁻¹ | 1.87 s⁻¹ | 2.15 s⁻¹
3 | MICA.2 (antibody, human IgG1, kappa, V domains shown, 3F5 variable regions on human IgG1f and human kappa constant regions, made in CHO-S cells; also called 3F5; recombinant antibody of 3F5) VH: EVQLVESGGGLVQPGGSLRLSCAASGFTFSTYSMNWVRQAPGKGLEWVSYISYRSRTIYYADSVKGRFTISRDNARNSLYLQMNSLRDEDTAVYYCARWGYGSGGFDYWGQGTLVTVSS VL: not shown | 0 | 4.95 nM | 1.74 nM | 41.9 nM | 0.0104 s⁻¹ | 0.0246 s⁻¹ | 0.0232 s⁻¹
4 | 24G11 (antibody, V domains shown, also called MICA.54; 24G11 (MICA.54)) VH: EVQLVQSGAEVKKPGESLKISCKGSGYSFTNYWIGWVRQMPGKGLEWLGIIHPGDSYTRYSPSFQGQVTISADKSISTAYLQWSSLKASDTAIYYCAREGIAATPFDYWGQGTLVTVSS VL: EIVLTQSPATLSLSPGERATLSCRASQSVSSYLAWFQQKPGQAPRLLIYDASNRATGIPARFSGSGSGTDFTLTISSLEPEDFAVYYCQQRSNWPPTFGQGTKVEIK | 1 | 147 nM | 192 nM | 104 nM |  |  | 
5 | 71C2 (antibody, V domains shown, Hybridoma antibody) VH: EVQLVESGGGLVQPGRSLRLSCAASGFTFNNYAMHWVRQAPGKGLEWVSGITWNSDSIGYADSVKGRFTISRDNAKNSLYLQMNSLRAEDTALYYCAKDSVLLWFGGMDVWGQGTTVTVSS VL: not shown |  | 13.8 nM | 10.2 nM | 36.9 nM | 0.0116 s⁻¹ | 0.0109 s⁻¹ | 0.0325 s⁻¹
